Assay results taken from publication doi:10.1101/2020.09.18.291195 (bioRxiv, 2020).

How the values were obtained:
[1] = target: human LI-cadherin EC1-5 (human); test: AUC
[2] = target: the molecule itself; test: AUC

human LI-cadherin EC1-5 (domain or fragment), sequence (Q12864 25-782): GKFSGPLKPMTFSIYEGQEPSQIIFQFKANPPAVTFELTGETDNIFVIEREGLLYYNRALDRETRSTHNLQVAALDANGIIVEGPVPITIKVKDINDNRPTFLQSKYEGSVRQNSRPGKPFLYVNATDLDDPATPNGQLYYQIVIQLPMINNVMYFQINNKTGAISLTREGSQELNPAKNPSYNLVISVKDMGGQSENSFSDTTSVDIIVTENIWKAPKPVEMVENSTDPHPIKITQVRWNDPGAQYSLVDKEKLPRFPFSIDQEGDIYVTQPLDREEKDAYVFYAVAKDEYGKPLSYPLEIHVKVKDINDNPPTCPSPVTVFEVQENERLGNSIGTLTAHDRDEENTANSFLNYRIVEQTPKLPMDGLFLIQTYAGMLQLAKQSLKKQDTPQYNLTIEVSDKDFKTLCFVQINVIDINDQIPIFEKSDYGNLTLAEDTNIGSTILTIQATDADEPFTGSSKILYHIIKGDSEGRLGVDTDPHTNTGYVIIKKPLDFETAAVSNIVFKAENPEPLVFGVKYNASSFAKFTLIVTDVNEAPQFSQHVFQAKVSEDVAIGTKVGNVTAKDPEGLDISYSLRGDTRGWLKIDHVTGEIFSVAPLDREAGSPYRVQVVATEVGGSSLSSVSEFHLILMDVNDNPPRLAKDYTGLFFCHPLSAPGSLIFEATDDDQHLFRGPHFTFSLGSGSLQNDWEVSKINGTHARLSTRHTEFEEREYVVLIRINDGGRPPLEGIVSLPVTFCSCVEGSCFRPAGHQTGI

Row | Molecule | Kd [1] | stoichiometry N [1] | Kd [2] | stoichiometry N [2]
1 | human LI-cadherin EC1-5 (domain or fragment) | 22.8 µM | 2 |  | 
2 | human LI-cadherin EC1-2 (domain or fragment) GPLKPMTFSIYEGQEPSQIIFQFKANPPAVTFELTGETDNIFVIEREGLLYYNRALDRETRSTHNLQVAALDANGIIVEGPVPITIKVKDINDNRPTFLQSKYEGSVRQNSRPGKPFLYVNATDLDDPATPNGQLYYQIVIQLPMINNVMYFQINNKTGAISLTREGSQELNPAKNPSYNLVISVKDMGGQSENSFSDTTSVDIIVTE |  |  | 75 µM | 2
3 | human LI-cadherin EC1-4 (domain or fragment, N-glycans (four partial N-glycans modelled in chain A and two in chain B of the crystal structure)) QEGKFSGPLKPMTFSIYEGQEPSQIIFQFKANPPAVTFELTGETDNIFVIEREGLLYYNRALDRETRSTHNLQVAALDANGIIVEGPVPITIKVKDINDNRPTFLQSKYEGSVRQNSRPGKPFLYVNATDLDDPATPNGQLYYQIVIQLPMINNVMYFQINNKTGAISLTREGSQELNPAKNPSYNLVISVKDMGGQSENSFSDTTSVDIIVTENIWKAPKPVEMVENSTDPHPIKITQVRWNDPGAQYSLVDKEKLPRFPFSIDQEGDIYVTQPLDREEKDAYVFYAVAKDEYGKPLSYPLEIHVKVKDINDNPPTCPSPVTVFEVQENERLGNSIGTLTAHDRDEENTANSFLNYRIVEQTPKLPMDGLFLIQTYAGMLQLAKQSLKKQDTPQYNLTIEVSDKDFKTLCFVQINVID |  |  | 39.8 µM | 2
